{"source": "patent US20110263827A1", "about": "(AbbVie / Abbott, published 2011)", "binders": {"B1": {"name": "DVD790 (bispecific antibody)", "VH": "EVQLVESGGGLVQPGGSLRLSCAASGFTISDYWIHWVRQAPGKGLEWVAGITPAGGYTYYADSVKGRFTISADTSKNTAYLQMNSLRAEDTAVYYCARFVFFLPYAMDYWGQGTLVTVSSASTKGPSVFPLAPQVQLQESGPGLVKPSQTLSLTCTVSGYSISSDFAWNWIRQPPGKGLEWMGYISYSGNTRYQPSLKSRITISRDTSKNQFFLKLNSVTAADTATYYCVTAGRGFPYWGQGTLVTVSS", "VL": "DIQMTQSPSSLSASVGDRVTITCRASQDVSTAVAWYQQKPGKAPKLLIYSASFLYSGVPSRFSGSGSGTDFTLTISSLQPEDFATYYCQQSYTTPPTFGQGTKVEIKRTVAAPSVFIFPPDIQMTQSPSSMSVSVGDRVTITCHSSQDINSNIGWLQQKPGKSFKGLIYHGTNLDDGVPSRFSGSGSGTDYTLTISSLQPEDFATYYCVQYAQFPWTFGGGTKLEIKR", "notes": "DVD-Ig; HC L, LC L; variable parts only"}, "B2": {"name": "DVD780 (bispecific antibody)", "VH": "EVQLVESGGGLVQPGGSLRLSCAASGYTFTNYGMNWVRQAPGKGLEWVGWINTYTGEPTYAADFKRRFTFSLDTSKSTAYLQMNSLRAEDTAVYYCAKYPHYYGSSHWYFDVWGQGTLVTVSSASTKGPSVFPLAPQVQLQESGPGLVKPSQTLSLTCTVSGYSISSDFAWNWIRQPPGKGLEWMGYISYSGNTRYQPSLKSRITISRDTSKNQFFLKLNSVTAADTATYYCVTAGRGFPYWGQGTLVTVSS", "VL": "DIQMTQSPSSLSASVGDRVTITCSASQDISNYLNWYQQKPGKAPKVLIYFTSSLHSGVPSRFSGSGSGTDFTLTISSLQPEDFATYYCQQYSTVPWTFGQGTKVEIKRTVAAPSVFIFPPDIQMTQSPSSMSVSVGDRVTITCHSSQDINSNIGWLQQKPGKSFKGLIYHGTNLDDGVPSRFSGSGSGTDYTLTISSLQPEDFATYYCVQYAQFPWTFGGGTKLEIKR", "notes": "as for B1"}, "B3": {"name": "DVD792 (bispecific antibody)", "VH": "EVQLVESGGGLVQPGGSLRLSCAASGFTINASWIHWVRQAPGKGLEWVGAIYPYSGYTNYADSVKGRFTISADTSKNTAYLQMNSLRAEDTAVYYCARWGHSTSPWAMDYWGQGTLVTVSSASTKGPSVFPLAPQVQLQESGPGLVKPSQTLSLTCTVSGYSISSDFAWNWIRQPPGKGLEWMGYISYSGNTRYQPSLKSRITISRDTSKNQFFLKLNSVTAADTATYYCVTAGRGFPYWGQGTLVTVSS", "VL": "DIQMTQSPSSLSASVGDRVTITCRASQVIRRSLAWYQQKPGKAPKLLIYAASNLASGVPSRFSGSGSGTDFTLTISSLQPEDFATYYCQQSNTSPLTFGQGTKVEIKRTVAAPSVFIFPPDIQMTQSPSSMSVSVGDRVTITCHSSQDINSNIGWLQQKPGKSFKGLIYHGTNLDDGVPSRFSGSGSGTDYTLTISSLQPEDFATYYCVQYAQFPWTFGGGTKLEIKR", "notes": "as for B1"}, "B4": {"name": "DVD839 (bispecific antibody)", "VH": "QVQLQESGPGLVKPSQTLSLTCTVSGYSISSDFAWNWIRQPPGKGLEWMGYISYSGNTRYQPSLKSRITISRDTSKNQFFLKLNSVTAADTATYYCVTAGRGFPYWGQGTLVTVSSASTKGPEVQLVESGGGLVQPGGSLRLSCAASGYTFTNYGMNWVRQAPGKGLEWVGWINTYTGEPTYAADFKRRFTFSLDTSKSTAYLQMNSLRAEDTAVYYCAKYPHYYGSSHWYFDVWGQGTLVTVSS", "VL": "DIQMTQSPSSMSVSVGDRVTITCHSSQDINSNIGWLQQKPGKSFKGLIYHGTNLDDGVPSRFSGSGSGTDYTLTISSLQPEDFATYYCVQYAQFPWTFGGGTKLEIKRTVAAPSVFIFPPDIQMTQSPSSLSASVGDRVTITCSASQDISNYLNWYQQKPGKAPKVLIYFTSSLHSGVPSRFSGSGSGTDFTLTISSLQPEDFATYYCQQYSTVPWTFGQGTKVEIKR", "notes": "DVD-Ig; HC S, LC L; variable parts only"}, "B5": {"name": "DVD337 (bispecific antibody)", "VH": "B4 VH", "VL": "DIQMTQSPSSMSVSVGDRVTITCHSSQDINSNIGWLQQKPGKSFKGLIYHGTNLDDGVPSRFSGSGSGTDYTLTISSLQPEDFATYYCVQYAQFPWTFGGGTKLEIKRTVAAPDIQMTQSPSSLSASVGDRVTITCSASQDISNYLNWYQQKPGKAPKVLIYFTSSLHSGVPSRFSGSGSGTDFTLTISSLQPEDFATYYCQQYSTVPWTFGQGTKVEIKR", "notes": "DVD-Ig; HC S, LC S; variable parts only"}, "B6": {"name": "DVD819 (bispecific antibody)", "VH": "QVQLQESGPGLVKPSQTLSLTCTVSGYSISSDFAWNWIRQPPGKGLEWMGYISYSGNTRYQPSLKSRITISRDTSKNQFFLKLNSVTAADTATYYCVTAGRGFPYWGQGTLVTVSSASTKGPSVFPLAPEVQLVESGGGLVQPGGSLRLSCAASGFTISDYWIHWVRQAPGKGLEWVAGITPAGGYTYYADSVKGRFTISADTSKNTAYLQMNSLRAEDTAVYYCARFVFFLPYAMDYWGQGTLVTVSS", "VL": "DIQMTQSPSSMSVSVGDRVTITCHSSQDINSNIGWLQQKPGKSFKGLIYHGTNLDDGVPSRFSGSGSGTDYTLTISSLQPEDFATYYCVQYAQFPWTFGGGTKLEIKRTVAAPDIQMTQSPSSLSASVGDRVTITCRASQDVSTAVAWYQQKPGKAPKLLIYSASFLYSGVPSRFSGSGSGTDFTLTISSLQPEDFATYYCQQSYTTPPTFGQGTKVEIKR", "notes": "DVD-Ig; HC L, LC S; variable parts only"}, "B7": {"name": "DVD757 (bispecific antibody)", "VH": "QVQLQESGPGLVKPSQTLSLTCTVSGYSISSDFAWNWIRQPPGKGLEWMGYISYSGNTRYQPSLKSRITISRDTSKNQFFLKLNSVTAADTATYYCVTAGRGFPYWGQGTLVTVSSASTKGPEVQLVESGGGLVQPGGSLRLSCAASGFTISDYWIHWVRQAPGKGLEWVAGITPAGGYTYYADSVKGRFTISADTSKNTAYLQMNSLRAEDTAVYYCARFVFFLPYAMDYWGQGTLVTVSS", "VL": "B6 VL", "notes": "as for B5"}, "B8": {"name": "DVD821 (bispecific antibody)", "VH": "QVQLQESGPGLVKPSQTLSLTCTVSGYSISSDFAWNWIRQPPGKGLEWMGYISYSGNTRYQPSLKSRITISRDTSKNQFFLKLNSVTAADTATYYCVTAGRGFPYWGQGTLVTVSSASTKGPSVFPLAPEVQLVESGGGLVQPGGSLRLSCAASGFTINASWIHWVRQAPGKGLEWVGAIYPYSGYTNYADSVKGRFTISADTSKNTAYLQMNSLRAEDTAVYYCARWGHSTSPWAMDYWGQGTLVTVSS", "VL": "DIQMTQSPSSMSVSVGDRVTITCHSSQDINSNIGWLQQKPGKSFKGLIYHGTNLDDGVPSRFSGSGSGTDYTLTISSLQPEDFATYYCVQYAQFPWTFGGGTKLEIKRTVAAPDIQMTQSPSSLSASVGDRVTITCRASQVIRRSLAWYQQKPGKAPKLLIYAASNLASGVPSRFSGSGSGTDFTLTISSLQPEDFATYYCQQSNTSPLTFGQGTKVEIKR", "notes": "as for B6"}, "B9": {"name": "DVD759 (bispecific antibody)", "VH": "QVQLQESGPGLVKPSQTLSLTCTVSGYSISSDFAWNWIRQPPGKGLEWMGYISYSGNTRYQPSLKSRITISRDTSKNQFFLKLNSVTAADTATYYCVTAGRGFPYWGQGTLVTVSSASTKGPEVQLVESGGGLVQPGGSLRLSCAASGFTINASWIHWVRQAPGKGLEWVGAIYPYSGYTNYADSVKGRFTISADTSKNTAYLQMNSLRAEDTAVYYCARWGHSTSPWAMDYWGQGTLVTVSS", "VL": "B8 VL", "notes": "as for B5"}, "B10": {"name": "DVD851 (bispecific antibody)", "VH": "B9 VH", "VL": "DIQMTQSPSSMSVSVGDRVTITCHSSQDINSNIGWLQQKPGKSFKGLIYHGTNLDDGVPSRFSGSGSGTDYTLTISSLQPEDFATYYCVQYAQFPWTFGGGTKLEIKRTVAAPSVFIFPPDIQMTQSPSSLSASVGDRVTITCRASQVIRRSLAWYQQKPGKAPKLLIYAASNLASGVPSRFSGSGSGTDFTLTISSLQPEDFATYYCQQSNTSPLTFGQGTKVEIKR", "notes": "as for B4"}, "B11": {"name": "DVD849 (bispecific antibody)", "VH": "B7 VH", "VL": "DIQMTQSPSSMSVSVGDRVTITCHSSQDINSNIGWLQQKPGKSFKGLIYHGTNLDDGVPSRFSGSGSGTDYTLTISSLQPEDFATYYCVQYAQFPWTFGGGTKLEIKRTVAAPSVFIFPPDIQMTQSPSSLSASVGDRVTITCRASQDVSTAVAWYQQKPGKAPKLLIYSASFLYSGVPSRFSGSGSGTDFTLTISSLQPEDFATYYCQQSYTTPPTFGQGTKVEIKR", "notes": "as for B4"}}}
{"target": "T1, EGFR (UniProt P00533 25-645, limits assumed, biotinylated)", "T1 construct": "ELISA antigen; construct not described", "assay": "direct bind ELISA, C-term VD;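 note: ELISA with antibody or DVD-Ig preparations applied to target antigen-coated plates for 1 h at room temperature, TMB colour development, absorbance read at 450 nm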", "units": {"EC50": "nM"}}
{"binder": "B1", "EC50": 76.8}
{"binder": "B2", "EC50": 409}
{"binder": "B3", "EC50": 48.6}
{"target": "T2, VEGF (UniProt P15692-4 27-191, limits assumed, biotinylated)", "T2 construct": "ELISA antigen", "assay": "direct bind ELISA, C-term VD;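 note: ELISA with antibody or DVD-Ig preparations applied to target antigen-coated plates for 1 h at room temperature, TMB colour development, absorbance read at 450 nm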", "units": {"EC50": "nM"}}
{"binder": "B4", "EC50": 0.26}
{"binder": "B5", "EC50": 0.57}
{"binder": "B6", "EC50": 36.4}
{"binder": "B7", "EC50": 528}
{"binder": "B8", "EC50": 11.1}
{"binder": "B9", "EC50": 128}
{"binder": "B10", "EC50": 28.4}
{"binder": "B11", "EC50": 59.6}
{"target": "T1, EGFR", "assay": "direct bind ELISA, N-term VD;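 note: antibody or DVD-Ig preparations bound to immobilized target antigen on ELISA plates, 1 h at room temperature, TMB detection read as absorbance at 450 nm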", "units": {"EC50": "nM"}}
{"binder": "B4", "EC50": 12.5}
{"binder": "B5", "EC50": 6.5}
{"binder": "B6", "EC50": 12.2}
{"binder": "B7", "EC50": 14.5}
{"binder": "B8", "EC50": 6.96}
{"binder": "B9", "EC50": 7.01}
{"binder": "B10", "EC50": 9.36}
{"binder": "B11", "EC50": 12.3}
{"target": "T2, VEGF", "assay": "direct bind ELISA, N-term VD;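 note: antibody or DVD-Ig preparations bound to immobilized target antigen on ELISA plates, 1 h at room temperature, TMB detection read as absorbance at 450 nm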", "units": {"EC50": "nM"}}
{"binder": "B1", "EC50": 15.9}
{"binder": "B2", "EC50": 2.19}
{"binder": "B3", "EC50": 0.82}
